Assay results taken from publication PMC6006169, “Conformational switching in the coiled-coil domains of a proteasomal ATPase regulates substrate processing” (Nature Communications, 2018).
Where a chain is given by its changes, count along the chain named. Names and notes keep the numbering of the source. Blank lines part the entries; values can stand above or below the molecule they belong to.

Tests used:
[1] = target: T1, PAN (proteasome-activating nucleotidase) (Methanocaldococcus jannaschii, UniProt Q58576, L73C/M87C); assay: NADH-coupled ATP regenerating ATPase assay ([…] nm); format: biochemical; conditions: oxidized (tetrathionate): coiled-coil disulfide crosslinked C1 and C3, no saturation with ATP; pH 7.5, 37 °C, 20 mM MgCl2; original residue 73 not given
T1 construct: full-length, pRSETA, E. coli BL21(DE3)-RIL, heat precipitation, anion exchange and size exclusion; no tag mentioned; homohexamer
T1 sequence (Q58576 whole entry L73C/M87C): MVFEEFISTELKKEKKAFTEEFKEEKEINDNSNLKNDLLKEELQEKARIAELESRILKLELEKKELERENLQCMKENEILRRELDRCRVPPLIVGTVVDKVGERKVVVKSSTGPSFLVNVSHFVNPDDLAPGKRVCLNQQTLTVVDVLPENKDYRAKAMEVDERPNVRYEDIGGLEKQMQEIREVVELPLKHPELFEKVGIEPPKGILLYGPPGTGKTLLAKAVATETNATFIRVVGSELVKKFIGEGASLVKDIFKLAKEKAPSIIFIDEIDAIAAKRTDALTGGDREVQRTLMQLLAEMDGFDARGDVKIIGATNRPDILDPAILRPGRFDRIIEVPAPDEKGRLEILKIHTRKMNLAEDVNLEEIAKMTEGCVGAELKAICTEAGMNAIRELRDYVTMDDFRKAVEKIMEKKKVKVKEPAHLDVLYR

[2] = target: CC-OB domain fragment of PAN-M87C (subcomplex I) (Methanococcus jannaschii); assay: cross-linking; PAN-M87C after partial trypsin proteolysis and gel filtration (Superose 12); fractions 1 and 3 in 1 mM tetrathionate 1 h at room temperature, desalted, non-reducing SDS-PAGE, silver stain
purified protein = substrate: Nc1ncnc2c1ncn2[C@@H]1O[C@H](COP(=O)(O)OP(=O)(O)OP(=O)(O)O)[C@@H](O)[C@H]1O; assay: purified protein; format: biochemical, Methanocaldococcus jannaschii; conditions: reduced (uncrosslinked), pH 7.5, 37 °C
[3] = target: the molecule itself; assay: cross-linking; disulfide cross-linking of engineered cysteines; 1 mM tetrathionate, 1-2 h, room temperature, 50 mM Tris pH 7.5 + 5% glycerol, no nucleotide, PAN at or below 0.25 mg/ml; desalted on G50, non-reducing SDS-PAGE, Coomassie, densitometry of monomers vs. dimers

Km [1]: > 3000 µM
Molecule: Nc1ncnc2c1ncn2[C@@H]1O[C@H](COP(=O)(O)OP(=O)(O)OP(=O)(O)O)[C@@H](O)[C@H]1O [ATP]

Molecule: CC-OB domain fragment of PAN-M87C (subcomplex I) (domain or fragment)
percent cross-linked dimers [2]: 100%

B1: PAN 59C (enzyme, Methanococcus jannaschii, UniProt Q58576 1-430, looked up)
chain: MVFEEFISTELKKEKKAFTEEFKEEKEINDNSNLKNDLLKEELQEKARIAELESRILKCELEKKELERENLQLMKENEILRRELDRMRVPPLIVGTVVDKVGERKVVVKSSTGPSFLVNVSHFVNPDDLAPGKRVCLNQQTLTVVDVLPENKDYRAKAMEVDERPNVRYEDIGGLEKQMQEIREVVELPLKHPELFEKVGIEPPKGILLYGPPGTGKTLLAKAVATETNATFIRVVGSELVKKFIGEGASLVKDIFKLAKEKAPSIIFIDEIDAIAAKRTDALTGGDREVQRTLMQLLAEMDGFDARGDVKIIGATNRPDILDPAILRPGRFDRIIEVPAPDEKGRLEILKIHTRKMNLAEDVNLEEIAKMTEGCVGAELKAICTEAGMNAIRELRDYVTMDDFRKAVEKIMEKKKVKVKEPAHLDVLYR
notes: Expressed from pRSETA; no tag named; source: E. coli BL21-DE3-RIL, purified (heat precipitation, anion exchange, size exclusion)
Km (purified protein; 20 mM MgCl2, original residue 59 not given): 436 ± 29 µM
percent cross-linked [3]: 69%

B2: PAN (proteasome-activating nucleotidase) (Methanocaldococcus jannaschii DSM 2661; L59C/L73C/M87C) (protein)
chain: B1 chain with L73C, M87C
notes: full-length, pRSETA, E. coli BL21(DE3)-RIL, heat precipitation, anion exchange and size exclusion; no tag mentioned; homohexamer
Km (purified protein; 20 mM MgCl2, original residues 73 and 59 not given): 580 ± 64 µM
